Source: doi:10.1101/509141
Where two headings read alike, the source gives them in different places.

Columns and labels:
Test in all cases: BLI
[1] = target: Bacteriophage Sf6, whole virions (bacteriophage Sf6)
[2] = target: Bacteriophage Sf6, whole virions (bacteriophage Sf6); remark: listed apart in the source
[3] = target: Bacteriophage Sf6, whole virions (bacteriophage Sf6); remark: listed apart in the source
[4] = target: Bacteriophage Sf6, whole virions (bacteriophage Sf6); remark: listed apart in the source

Substance | Kd [1] [nM] | Kd [2] [nM] | Kd [3] [nM] | Kd [4] [nM]
OmpA-TM_(E.coli), transmembrane domain of E. coli outer membrane protein A (domain or fragment) | 25 |  |  | 
OmpA-TM_(S.flex), transmembrane domain of S. flexneri outer membrane protein A (domain or fragment) | 36 | 99.6 | 89.9 | 82.3
S. flexneri OmpA-TM N155E (domain or fragment) | 6.9 to 65.4 |  |  | 
